The source of these data is PMC7889586, “Effects of Conserved Wedge Domain Residues on DNA Binding Activity of Deinococcus radiodurans RecG Helicase”.

One data set concerns the target T1, DrRecG-WD WT (Deinococcus radiodurans R1, UniProt Q9RT50 158-235).
T1 sequence: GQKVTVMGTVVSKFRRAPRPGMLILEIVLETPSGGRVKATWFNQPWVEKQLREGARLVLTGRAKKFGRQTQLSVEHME
The experiment in a line: EMSA; 100 nM HJ; near saturation at 160 nM protein; 5 mM EDTA; 50 mM Tris-HCl pH 8.0, 5 mM EDTA, 1 mM DTT, 100 ug/ml BSA, 6% glycerol, on ice 15 min; 100 nM HJ; 6% polyacrylamide gel at room temperature. Particulars: protein: recombinant; tags: MBP (N-terminal fusion, pMAL-c2x); four-way junction of 4 strands, 1 copy each. For orientation: In EMSA bound probe runs differently from free probe, usually more slowly.

For a further data set, the target named is T2, EcRecG-WD QPW (Escherichia coli MG1655, UniProt P24230 59-135, F99Q;S100P;A101W).
T2 sequence: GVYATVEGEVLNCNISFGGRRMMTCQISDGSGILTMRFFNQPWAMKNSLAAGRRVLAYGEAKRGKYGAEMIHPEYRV
The experiment in a line: EMSA; 100 nM HJ; significantly increased vs EcRecG-WD WT; 5 mM EDTA; 50 mM Tris-HCl pH 8.0, 5 mM EDTA, 1 mM DTT, 100 ug/ml BSA, 6% glycerol, on ice 15 min; 100 nM HJ; 6% polyacrylamide gel at room temperature. Particulars: protein: recombinant; tags: MBP (N-terminal fusion, pMAL-c2x); four-way junction of 4 strands, 1 copy each.

B1: Holliday junction (oligos 1-4) (structured_DNA)
DNA 1: GTCGGATCCTCTAGACAGCTCCATGATCACTGGCACTGGTAGAATTCGGC
DNA 2: CAACGTCATAGACGATTACATTGCTACATGGAGCTGTCTAGAGGATCCGA
DNA 3: TGCCGAATTCTACCAGTGCCAGTGATGGACATCTTTGCCACGTTGACCC
DNA 4: TGGGTCAACGTGGGCAAGATGTCCTAGCAATGTAATCGTCTATGACGT
Turning to B1, the binding result with DrRecG-WD WT and in the data set with EcRecG-WD QPW was “binds” in each case.
